Earlier results on one molecule are cited in patent publication US20050026224A1, “Methods and compositions for modulating G-protein coupled receptor 54” (priority 2003, published 2005).

The subject of data set [1] is cell motility. To be noted: Hori et al. 2001.
In data set [2] the test system is cell motility. To be noted: Hori et al. 2001. This is another data set of the same source.
Data set [3] concerns GPR54 transfected CHO cells. To be noted: GPR54 transfected CHO cells in vitro; Ohtaki et al. 2001.
The subject of data set [4] is GPR54 transfected CHO cells. To be noted: GPR54 transfected CHO cells in vitro; Ohtaki et al. 2001. The source holds these as a separate data set.
Data set [5] concerns GPR54-transfected B16-BL6 melanomas. To be noted: GPR54-transfected B16-BL6 melanomas in vivo; Ohtaki et al. 2001.

B1: Metastin: peptide ligand agonist for GPR54; protein product of the Kiss-1 gene (SEQ ID NO: 4) (protein, listed as Homo sapiens)
chain: MNSLVSWQLLLFLCATHFGEPLEKVASVGNSRPTGQQLESLGLLAPGEQSLPCTERKPAATARLSRRGTSLSPPPESSGSRQQPGLSAPHSRQIPAPQGAVLVQREKDLPNYNWNSFGLRFGKREAAPGNHGRSAGRGWGAGAGQ
Regarding B1, the “cell motility in a chemotaxis assay” value with cell motility [1] was “suppress cell motility”. In addition, the “cell motility in a wound healing assay” value in the data set on cell motility [2] is given as “suppress cell motility”. In addition, in data set [3], the chemotaxis result was “inhibits chemotaxis”. Also, the invasion entry in data set [4] is listed as “inhibits”. Besides, the pulmonary metastasis entry in data set [5] is “attenuates pulmonary metastasis”.
